Measured values taken from patent US20240270813A1 (UNIVERSITY OF PITTSBURGH OF THE COMMONWEALTH SYSTEM OF …, published 2024).
Substitutions are numbered along the chain they refer to. Values joined by “and” are separate entries in the source; they are usually repeats but may differ in a detail not shown here. Equal entries are not always repeated. Blank lines part the entries; values can stand above or below the binder they belong to.

What was measured:
[1] = biological target: T1, minor histocompatibility antigen HA-1, immunogenic H variant peptide on HLA-A*02:01 (human); test: CD69 on TCR-transduced Jurkat J.RT3-T3.5-CD8; overnight with A*0201 LCLs (1:1) and titrated HA-1 H peptide; given as a range, upper bound given; full-length, on cells
T1 peptide: VLHDDLLEA

[2] = biological target: T1, minor histocompatibility antigen HA-1, …; test: multimer staining

B2: TCR L (TCR, V domains shown)
Valpha: KQEVTQIPAALSVPEGENLVLNCSFTDSAIYNLQWFRQDPGKGLTSLLLIQSSQREQTSGRLNASLDKSSGRSTLYIAASQPGDSATYLCAVTRTGANNLFFGTGTRLTVIP
Vbeta: DTGVSQDPRHKITKRGQNVTFRCDPISEHNRLYWYRQTLGQGPEFLTYFQNEAQLEKSRLLSDRFSAERPKGSFSTLEIQRTEQGDSAMYLCASSLGVLGIGYTFGSGTRLTVV
EC50 of peptide [1]: ≤ 100 ng/mL and ≤ 100 nM

B3: TCR J (TCR, V domains shown)
Valpha: QKEVEQDPGPLSVPEGAIVSLNCTYSNSAFQYFMWYRQYSRKGPELLMYTYSSGNKEDGRFTAQVDKSSKYISLFIRDSQPSDSATYLCAMRATSGTYKYIFGTGTRLKVLA
Vbeta: DTGVSQDPRHKITKRGQNVTFRCDPISEHNRLYWYRQTLGQGPEFLTYFQNEAQLEKSRLLSDRFSAERPKGSFSTLEIQRTEQGDSAMYLCAVPGGSSYNEQFFGPGTRLTVL
EC50 of peptide [1]: ≤ 100 ng/mL and ≤ 100 nM

B4: TCR K (TCR, V domains shown)
Valpha: DAKTTQPNSMESNEEEPVHLPCNHSTISGTDYIHWYRQLPSQGPEYVIHGLTSNVNNRMASLAIAEDRKSSTLILHRATLRDAAVYYCILRAGSGTYKYIFGTGTRLKVLA
Vbeta: B3 Vbeta with V94S, P95S, G96P, S98T, S99V
EC50 of peptide [1]: ≤ 100 ng/mL and ≤ 100 nM

B9: TCR G (TCR, V domains shown)
Valpha: SQQGEEDPQALSIQEGENATMNCSYKTSINNLQWYRQNSGRGLVHLILIRSNEREKHSGRLRVTLDTSKKSSSLLITASRAADTASYFCAGTGANNLFFGTGTRLTVIP
Vbeta: DTGVSQDPRHKITKRGQNVTFRCDPISEHNRLYWYRQTLGQGPEFLTYFQNEAQLEKSRLLSDRFSAERPKGSFSTLEIQRTEQGDSAMYLCASSLIRGETQYFGPGTRLLVL
EC50 of peptide [1]: ≤ 100 ng/mL and ≤ 100 nM

B11: TCR I (TCR, V domains shown)
Valpha: KQEVTQIPAALSVPEGENLVLNCSFTDSAIYNLQWFRQDPGKGLTSLLLIQSSQREQTSGRLNASLDKSSGRSTLYIAASQPGDSATYLCAVRGTTSGTYKYIFGTGTRLKVLA
Vbeta: B9 Vbeta with L96F, I97L, R98A
EC50 of peptide [1]: ≤ 100 ng/mL and ≤ 100 nM

B12: TCR M (TCR, V domains shown)
Valpha: B11 Valpha with T95S
Vbeta: B9 Vbeta with I97V, R98A
EC50 of peptide [1]: ≤ 100 ng/mL and ≤ 100 nM

B15: TCR B (TCR, V domains shown)
Valpha: SQQGEEDPQALSIQEGENATMNCSYKTSINNLQWYRQNSGRGLVHLILIRSNEREKHSGRLRVTLDTSKKSSSLLITASRAADTASYFCATAPGSGTYKYIFGTGTRLKVLA
Vbeta: DTGVSQDPRHKITKRGQNVTFRCDPISEHNRLYWYRQTLGQGPEFLTYFQNEAQLEKSRLLSDRFSAERPKGSFSTLEIQRTEQGDSAMYLCAAPPDTYNSPLHFGNGTRLTVT
EC50 of peptide [1]: ≤ 100 ng/mL and ≤ 100 nM

B16: TCR H (TCR, V domains shown)
Valpha: GENVEQHPSTLSVQEGDSAVIKCTYSDSASNYFPWYKQELGKRPQLIIDIRSNVGEKKDQRIAVTLNKTAKHFSLHITETQPEDSAVYFCAAPLAGGGADGLTFGKGTHLIIQP
Vbeta: DTGVSQDPRHKITKRGQNVTFRCDPISEHNRLYWYRQTLGQGPEFLTYFQNEAQLEKSRLLSDRFSAERPKGSFSTLEIQRTEQGDSAMYLCASSTTLITGYTFGSGTRLTVV
EC50 of peptide [1]: ≤ 100 ng/mL and ≤ 100 nM

The next lines start with the values.

EC50 of peptide [1]: ≤ 1000 ng/mL and ≤ 1 µM
B1: TCR R (TCR, V domains shown)
Valpha: SQQGEEDPQALSIQEGENATMNCSYKTSINNLQWYRQNSGRGLVHLILIRSNEREKHSGRLRVTLDTSKKSSSLLITASRAADTASYFCATEMNSNYQLIWGAGTKLIIKP
Vbeta: DTGVSQDPRHKITKRGQNVTFRCDPISEHNRLYWYRQTLGQGPEFLTYFQNEAQLEKSRLLSDRFSAERPKGSFSTLEIQRTEQGDSAMYLCASSPLKGSNYGYTFGSGTRLTVV

EC50 of peptide [1]: ≤ 1000 ng/mL and ≤ 1 µM
B5: TCR S (TCR, V domains shown)
Valpha: DAKTTQPPSMDCAEGRAANLPCNHSTISGNEYVYWYRQIHSQGPQYIIHGLKNNETNEMASLIITEDRKSSTLILPHATLRDTAVYYCIVRASTSGTYKYIFGTGTRLKVLA
Vbeta: B3 Vbeta with V94S, P95S, G96P, S98T, S99V

EC50 of peptide [1]: ≤ 100 ng/mL and ≤ 100 nM
B6: TCR P (TCR, V domains shown)
Valpha: AQSVSQHNHHVILSEAASLELGCNYSYGGTVNLFWYVQYPGQHLQLLLKYFSGDPLVKGIKGFEAEFIKSKFSFNLRKPSVQWSDTAEYFCAVRDSGAGSYQLTFGKGTKLSVIP
Vbeta: B3 Vbeta with V94S, P95L, G96T, S98T, S99V

EC50 of peptide [1]: ≤ 1000 ng/mL and ≤ 1 µM
B7: TCR T (TCR, V domains shown)
Valpha: SQQGEEDPQALSIQEGENATMNCSYKTSINNLQWYRQNSGRGLVHLILIRSNEREKHSGRLRVTLDTSKKSSSLLITASRAADTASYFCATPSGNTPLVFGKGTRLSVIA
Vbeta: B3 Vbeta with F45L, V94S, P95S, G96Q, G97L, S98A, S99G, Y100V, N101I

binding result [2]: recognises
B8: TCR A (TCR, V domains shown)
Valpha: AQSVAQPEDQVNVAEGNPLTVKCTYSVSGNPYLFWYVQYPNRGLQFLLKYITGDNLVKGSYGFEAEFNKSQTSFHLKKPSALVSDSALYFCAVRGGSYKYIFGTGTRLKVLA
Vbeta: B3 Vbeta with V94S, P95T, G96P, S98T, S99V

EC50 of peptide [1]: ≤ 100 ng/mL and ≤ 100 nM
B10: TCR O (TCR, V domains shown)
Valpha: GENVEQHPSTLSVQEGDSAVIKCTYSDSASNYFPWYKQELGKRPQLIIDIRSNVGEKKDQRIAVTLNKTAKHFSLHITETQPEDSAVYFCAMRNNNDMRFGAGTRLTVKP
Vbeta: B9 Vbeta with I97T, R98T, G99L, E100D, L111T

EC50 of peptide [1]: ≤ 100 ng/mL and ≤ 100 nM
B13: TCR N (TCR, V domains shown)
Valpha: B10 Valpha with M92A, R93I, N94V, N95G, D97Q, M98F, R99Y, A102T, R105S, K109I
Vbeta: B9 Vbeta with L96E, I97T, R98T, G99L, E100S, T101E, Y103F, L111T

EC50 of peptide [1]: ≤ 1000 ng/mL and ≤ 1 µM
B14: TCR Q (TCR, V domains shown)
Valpha: GENVEQHPSTLSVQEGDSAVIKCTYSDSASNYFPWYKQELGKRPQLIIDIRSNVGEKKDQRIAVTLNKTAKHFSLHITETQPEDSAVYFCAASNPTGANSKLTFGKGITLSVRP
Vbeta: B9 Vbeta with I97V, G99N, T101K, Q102L, Y103F, P106S, R109Q, L111S

binding result [2]: recognises
B17: TCR C (TCR, V domains shown)
Valpha: B11 Valpha with G94P, T95R
Vbeta: DTGVSQDPRHKITKRGQNVTFRCDPISEHNRLYWYRQTLGQGPEFLTYFQNEAQLEKSRLLSDRFSAERPKGSFSTLEIQRTEQGDSAMYLCASTELSGNTIYFGEGSWLTVV
